In the test the target is δ1 TCR on δ1 T-cells in PBMCs (human) (UniProt O00548). In words: cell-based or functional assay.

The text below walks through data of patent US20160175358A1.

UniProt O00548, sequence (O00548 18-723, stated change not applied): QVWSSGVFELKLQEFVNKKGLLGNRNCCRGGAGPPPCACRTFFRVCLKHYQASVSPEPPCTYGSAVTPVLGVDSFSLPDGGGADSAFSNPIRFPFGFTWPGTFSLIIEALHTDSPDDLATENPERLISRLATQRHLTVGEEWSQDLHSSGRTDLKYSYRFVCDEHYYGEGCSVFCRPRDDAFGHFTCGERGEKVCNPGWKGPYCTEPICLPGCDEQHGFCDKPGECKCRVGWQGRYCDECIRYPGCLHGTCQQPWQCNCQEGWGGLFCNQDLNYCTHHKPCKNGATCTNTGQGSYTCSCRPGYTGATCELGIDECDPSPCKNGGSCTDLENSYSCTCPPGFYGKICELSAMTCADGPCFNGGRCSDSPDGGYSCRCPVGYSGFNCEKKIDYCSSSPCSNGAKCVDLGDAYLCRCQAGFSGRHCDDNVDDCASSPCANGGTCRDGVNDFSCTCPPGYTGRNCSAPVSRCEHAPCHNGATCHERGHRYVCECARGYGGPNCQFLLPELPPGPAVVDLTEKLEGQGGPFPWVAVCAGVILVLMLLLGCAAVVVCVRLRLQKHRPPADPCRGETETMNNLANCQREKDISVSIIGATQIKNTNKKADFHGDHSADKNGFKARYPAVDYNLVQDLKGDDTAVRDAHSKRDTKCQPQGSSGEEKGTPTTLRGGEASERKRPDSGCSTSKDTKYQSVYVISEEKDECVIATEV

In the case of anti-TCR Vδ1 TS-1 antibody, the induced proliferation, relative to TS8.2 was 3 fold.
